Data: patent publication US20220098307A1 (WUHAN YZY BIOPHARMA, published 2022)

Experiments:
Human CD3ε = biological target: T1, Human CD3ε (human, UniProt P07766 23-126); experiment: flow cytometry, human T cells
T1 construct: CD3 on T cells isolated from human whole blood
Excerpt: (§1) 1) Cell preparation: T cells isolated from CD3-positive human whole blood were used for a CD3 end affinity detection of multifunctional antibody molecule; positive tumor cells of corresponding antigen were used for detecting affinity of tumor antigen; for example, CD38-positive MM. 1S cells (purchased from the Cell Resource Center of Shanghai Institutes for Biological Sciences, Chinese Academy of Sciences) or RPMI 8226 cells (purchased from the Cell Resource Center of Shanghai Institutes for Biological Sciences, Chinese Academy of Sciences) were used for CD38 antigen detection, and PD-L1 positive H358 cells (purchased from the Cell Resource Center of Shanghai Institutes for Biological Sciences, Chinese Academy of Sciences) were used for PD-L1 antigen detection, and so on. The cells were resuspended with 1% FBS-PBS, adjusted to a density of 4×10⁶/ml, and 50 μl of cells were taken from each well, and then plated at 2×10⁵ per well. Cell plating was operated on ice
(§2) 2) Addition of the antibody: according to the experimental design, the antibody was diluted gradually, and dilution of antibody was operated on ice. For example, the initial concentration of antibody for dilution was 3000 nM, and the antibody was diluted by 3 times with 11 concentration gradients. The diluted antibody was added to a cell well at 50 μl per well, mixed well, and shaked and incubated at 4° C. 1100 rpm/min for 2 h; after washing, the cells were resuspend in 1% FBS-PBS, and a diluted secondary antibody PE anti-human IgG FC (Biolegend, 409304) was added with a final concentration of 8 ug/ml and a volume of 50 μl/well. At the same time, a well only added with cells and secondary antibody was set as a control, the components were mixed well, and incubated under shaking at 1100 rpm/min at 4° C. for 1 h;
(§3) 5) Data analysis: the data was analyzed by a flow analysis software FlowJo 7.6 thereby obtaining an average fluorescence intensity of the specific antibody concentration, plotted by a Graphpad Prism 5 with the antibody concentration (nM) as an abscissa and the average fluorescence intensity as an ordinate; the EC50 value was calculated by the method of One site—Specific binding, and the EC50 value indicated the cell affinity of the antibody to the corresponding target antigen.

human CEA = biological target: T2, human CEA (human, UniProt P06731 35-685); experiment: flow cytometry, human tumor cells (CEA+)
T2 sequence: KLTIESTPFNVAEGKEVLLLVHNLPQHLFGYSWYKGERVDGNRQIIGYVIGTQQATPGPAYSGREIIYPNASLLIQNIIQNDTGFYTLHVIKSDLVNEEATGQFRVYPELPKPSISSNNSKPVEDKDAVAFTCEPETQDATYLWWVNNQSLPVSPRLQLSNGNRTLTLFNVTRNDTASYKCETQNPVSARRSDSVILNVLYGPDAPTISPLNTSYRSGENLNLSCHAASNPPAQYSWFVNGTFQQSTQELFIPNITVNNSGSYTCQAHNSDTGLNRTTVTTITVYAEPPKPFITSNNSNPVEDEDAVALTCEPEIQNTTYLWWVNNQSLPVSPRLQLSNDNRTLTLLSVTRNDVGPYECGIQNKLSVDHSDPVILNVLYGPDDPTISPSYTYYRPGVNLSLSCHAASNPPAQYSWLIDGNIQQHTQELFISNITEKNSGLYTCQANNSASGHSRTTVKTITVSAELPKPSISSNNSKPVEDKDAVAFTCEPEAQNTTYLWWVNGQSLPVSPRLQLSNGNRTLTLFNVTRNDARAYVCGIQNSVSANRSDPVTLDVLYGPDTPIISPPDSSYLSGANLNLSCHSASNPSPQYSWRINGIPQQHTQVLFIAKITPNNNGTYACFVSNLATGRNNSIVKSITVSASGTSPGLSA
Excerpt: as §1, §2, §3

B1: CEA-M3-G2 (bispecific antibody)
chain 1: QVQLVQSGSELKKPGASVKVSCKASGYTFTVFGMNWVRQAPGQGLEWMGWINTKTGEATYVEEFKGRFVFSLDTSVSTAYLQISSLKADDTAVYYCARWDFYDYVEAMDYWGQGTTVTVSSASTKGPSVFPLAPSSKSTSGGTAALGCLVKDYFPEPVTVSWNSGALTSGVHTFPAVLQSSGLYSLSSVVTVPSSSLGTQTYICNVNHKPSNTKVDKKVEPKSCGGGGSGGGGSQVQLVESGGGVVQPGRSLRLSCAASGFTFSTYAMNWVRQAPGKGLEWVARIRSKYNNYATYYADSVKDRFTISRDDSKNTLYLQMNSLRAEDTAVYYCARHGNFGNSYVSWFAYWGQGTLVTVSSASVAAPSVFIFPPSDEQLKSGTASVVCLLNNFYPREAKVQWKVDNALQSGNSQESVTEQDSKDSTYSLSSTLTLSKADYEKHKVYACEVTHQGLSSPVTKSFNRGECDKTHTCPPCPAPPVAGPSVFLFPPKPKDTLMISRTPEVTCVVVDVSHEDPEVQFNWYVDGVEVHNAKTKPREEQFNSTFRVVSVLTVVHQDWLNGKEYKCKVSNKGLPAPIEKTISKTKGQPREPQVYTLPPCRDELTKNQVSLWCLVKGFYPSDIAVEWESNGQPENNYKTTPPVLDSDGSFFLYSKLTVDKSRWQQGNVFSCSVMHEALHNHYTQKSLSLSPGK
chain 2: QTVVTQEPSLTVSPGGTVTLTCRSSTGAVTTSNYANWVQQKPGQAPRGLIGGTNKRAPGVPARFSGSLLGGKAALTLSGVQPEDEAEYYCALWYSNLWVFGGGTKVEIKSSASTKGPSVFPLAPSSKSTSGGTAALGCLVKDYFPEPVTVSWNSGALTSGVHTFPAVLQSSGLYSLSSVVTVPSSSLGTQTYICNVNHKPSNTKVDKKVEPKSC
heavy: QVQLVQSGSELKKPGASVKVSCKASGYTFTVFGMNWVRQAPGQGLEWMGWINTKTGEATYVEEFKGRFVFSLDTSVSTAYLQISSLKADDTAVYYCARWDFYDYVEAMDYWGQGTTVTVSSASTKGPSVFPLAPSSKSTSGGTAALGCLVKDYFPEPVTVSWNSGALTSGVHTFPAVLQSSGLYSLSSVVTVPSSSLGTQTYICNVNHKPSNTKVDKKVEPKSCDKTHTCPPCPAPPVAGPSVFLFPPKPKDTLMISRTPEVTCVVVDVSHEDPEVQFNWYVDGVEVHNAKTKPREEQFNSTFRVVSVLTVVHQDWLNGKEYKCKVSNKGLPAPIEKTISKTKGQPREPQVCTLPPSRDELTKNQVSLSCAVKGFYPSDIAVEWESNGQPENNYKTTPPVLDSDGSFFLVSKLTVDKSRWQQGNVFSCSVMHEALHNRFTQKSLSLSPGK
light: DIQMTQSPSSLSASVGDRVTITCKASQNVGTNVAWYQQKPGKAPKLLIYSASYRYSGVPSRFSGSGSGTDFTFTISSLQPEDIATYYCHQYYTYPLFTFGQGTKVEIKRTVAAPSVFIFPPSDEQLKSGTASVVCLLNNFYPREAKVQWKVDNALQSGNSQESVTEQDSKDSTYSLSSTLTLSKADYEKHKVYACEVTHQGLSSPVTKSFNRGEC
notes: structure 3; CEA x CD3; CH2 G2CH2
Human CD3ε
  EC50: 638 nM
Human CEA
  EC50: 36.3 nM

B2: CEA-M3-AG2 (bispecific antibody)
chain 1: QVQLVQSGSELKKPGASVKVSCKASGYTFTVFGMNWVRQAPGQGLEWMGWINTKTGEATYVEEFKGRFVFSLDTSVSTAYLQISSLKADDTAVYYCARWDFYDYVEAMDYWGQGTTVTVSSASTKGPSVFPLAPSSKSTSGGTAALGCLVKDYFPEPVTVSWNSGALTSGVHTFPAVLQSSGLYSLSSVVTVPSSSLGTQTYICNVNHKPSNTKVDKKVEPKSCGGGGSGGGGSQVQLVESGGGVVQPGRSLRLSCAASGFTFSTYAMNWVRQAPGKGLEWVARIRSKYNNYATYYADSVKDRFTISRDDSKNTLYLQMNSLRAEDTAVYYCARHGNFGNSYVSWFAYWGQGTLVTVSSASVAAPSVFIFPPSDEQLKSGTASVVCLLNNFYPREAKVQWKVDNALQSGNSQESVTEQDSKDSTYSLSSTLTLSKADYEKHKVYACEVTHQGLSSPVTKSFNRGECDKTHTCPPAPAPPVAGPSVFLFPPKPKDTLMISRTPEVTCVVVDVSHEDPEVQFNWYVDGVEVHNAKTKPREEQFNSTFRVVSVLTVVHQDWLNGKEYKCKVSNKGLPAPIEKTISKTKGQPREPQVYTLPPCRDELTKNQVSLWCLVKGFYPSDIAVEWESNGQPENNYKTTPPVLDSDGSFFLYSKLTVDKSRWQQGNVFSCSVMHEALHNHYTQKSLSLSPGK
chain 2: QTVVTQEPSLTVSPGGTVTLTCRSSTGAVTTSNYANWVQQKPGQAPRGLIGGTNKRAPGVPARFSGSLLGGKAALTLSGVQPEDEAEYYCALWYSNLWVFGGGTKVEIKSSASTKGPSVFPLAPSSKSTSGGTAALGCLVKDYFPEPVTVSWNSGALTSGVHTFPAVLQSSGLYSLSSVVTVPSSSLGTQTYICNVNHKPSNTKVDKKVEPKSC
heavy: QVQLVQSGSELKKPGASVKVSCKASGYTFTVFGMNWVRQAPGQGLEWMGWINTKTGEATYVEEFKGRFVFSLDTSVSTAYLQISSLKADDTAVYYCARWDFYDYVEAMDYWGQGTTVTVSSASTKGPSVFPLAPSSKSTSGGTAALGCLVKDYFPEPVTVSWNSGALTSGVHTFPAVLQSSGLYSLSSVVTVPSSSLGTQTYICNVNHKPSNTKVDKKVEPKSCDKTHTCPPAPAPPVAGPSVFLFPPKPKDTLMISRTPEVTCVVVDVSHEDPEVQFNWYVDGVEVHNAKTKPREEQFNSTFRVVSVLTVVHQDWLNGKEYKCKVSNKGLPAPIEKTISKTKGQPREPQVCTLPPSRDELTKNQVSLSCAVKGFYPSDIAVEWESNGQPENNYKTTPPVLDSDGSFFLVSKLTVDKSRWQQGNVFSCSVMHEALHNRFTQKSLSLSPGK
light: DIQMTQSPSSLSASVGDRVTITCKASQNVGTNVAWYQQKPGKAPKLLIYSASYRYSGVPSRFSGSGSGTDFTFTISSLQPEDIATYYCHQYYTYPLFTFGQGTKVEIKRTVAAPSVFIFPPSDEQLKSGTASVVCLLNNFYPREAKVQWKVDNALQSGNSQESVTEQDSKDSTYSLSSTLTLSKADYEKHKVYACEVTHQGLSSPVTKSFNRGEC
notes: structure 3; CEA x CD3; CH2 AG2CH2
Human CD3ε
  EC50: 602 nM
Human CEA
  EC50: 38.1 nM
